Measured values reported in patent US20240075137A1 (COMPUGEN, published 2024).
Numbering of substitutions follows the chain as printed. Like-named read-outs stand apart in the source and are kept apart here.

T1: human PVRIG on cells (human, UniProt Q6DKI7 1-326)
T1 construct: whole, on cells; over-expressed on HEK cells or endogenous on Jurkat and CD8 T cells; also called hPVRIG; HEK hPVRIG cells
T1 sequence (looked up): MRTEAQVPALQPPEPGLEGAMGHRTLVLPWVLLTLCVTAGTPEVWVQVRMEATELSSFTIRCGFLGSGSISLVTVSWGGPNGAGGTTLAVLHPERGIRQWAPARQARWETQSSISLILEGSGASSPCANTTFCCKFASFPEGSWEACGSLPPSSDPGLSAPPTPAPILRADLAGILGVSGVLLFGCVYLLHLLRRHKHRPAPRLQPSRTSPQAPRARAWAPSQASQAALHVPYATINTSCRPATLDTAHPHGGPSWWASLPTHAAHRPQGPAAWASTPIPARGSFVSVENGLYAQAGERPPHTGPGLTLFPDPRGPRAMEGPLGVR

T2: cynomolgus PVRIG on cells (cynomolgus, UniProt A0A2K5WVV8 41-322)
T2 construct: whole, on cells; also called cPVRIG; expi cPVRIG cells
T2 sequence: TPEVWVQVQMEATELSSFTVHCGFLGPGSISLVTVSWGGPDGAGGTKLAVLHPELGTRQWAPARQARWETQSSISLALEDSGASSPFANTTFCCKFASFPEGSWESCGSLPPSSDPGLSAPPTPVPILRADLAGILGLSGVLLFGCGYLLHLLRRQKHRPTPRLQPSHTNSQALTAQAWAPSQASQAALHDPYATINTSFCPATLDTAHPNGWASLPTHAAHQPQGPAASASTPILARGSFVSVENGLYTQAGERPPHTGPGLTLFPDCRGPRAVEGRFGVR

T3: PVRIG (FACS-based competition assay of FIGS. 7 and 15) (Homo sapiens, UniProt Q6DKI7)
T3 construct: made because the format of the assay is only described in U.S. Ser. No. 15/048,967; also called human PVRIG
T3 sequence (receptor, looked up): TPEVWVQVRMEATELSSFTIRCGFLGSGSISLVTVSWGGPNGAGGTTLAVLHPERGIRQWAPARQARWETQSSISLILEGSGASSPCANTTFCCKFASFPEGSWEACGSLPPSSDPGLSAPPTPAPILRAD

B1: CHA.7.514 (antibody, V domains shown)
VH: EVQLRQSGADLVKPGASVKLSCTASGFNIKDTYIDWVKQRPEQGLDWIGRIDPANGNTKYDPKFQGKATIITDTSSNTAYLQLSNLTSEDTAVYYCARYGSYPYFDYWGRGTTLAVSS
VL: SIVMTQTPKFLLISAGDRVTITCKASQSVRNDVAWYQQKPGQSPKLLMYYASNRYTGVPDRFTGSGYGTDFTFTISTVQAEDLAVYFCQQDYSSPPTFGGGTKLEIK
B2: CHA.7.516 (antibody, V domains shown)
VH: QVQLQQSGPELVRPGVSVKISCKVSGYTFTDYVMHWVKQSHAKSLEWIGIISPYSGNTNYNQNFKGKATMTVDKSSSTAYMALARLTSEDSAIYYCAREGDLPMFAYWGQGTLVTVSA
VL: QIVLTQSPTIMSASPGEKVTMTCSASSSVSYIYWYQQNPGSSPRLLIYDTSILASGVPFRFSGSGSGTSYSLTISRMEAEDAATYYCQQWTSYPLTFGSGTKLELK
B3: CHA.7.510 (antibody, V domains shown)
VH: QVTLKESGPGILQPSQTLSLTCSFSGFSLNTSGTGVGWIRQPSGKGLEWLTHIWWNDNKFYNTFLKSRLTISKETSNNQVFLKIASVDTADAATYYCARMAYGNLWFVNWGQGTLVAVST
VL: DIVLTQSPASLAVSLGQRASISCRASRSVTISGYSYMYWYQQKPGQPPRLLFYLASNLASGVPARFSGSGSGTDFTLNIHPVEEEDAAIYYCQHSRELPYTFGGGTKLEIK
B4: CHA.7.522 (antibody, V domains shown)
VH: QVQLQQPGSELVRPGTSVKLSCKASGYTFTSYWVHWVRQRHGQGLEWIGNVYPGSGSTNYDEKFKSKGTLTVDTSSSTAYMHLSSLTSEDSAVYYCTRGVLRFPLDYWGQGTTLTVSS
VL: DIVMTQAAPSVPVTPGESVSISCRSSKSLLHSNGNTYLYWFLQRPGQSPHLLIYRMSNLASGVPDRFSGSGSGTAFTLRISRVEAEDVGVYYCMQHLEYPLTFGAGTKLELK
B5: CHA.7.524 (antibody, V domains shown)
VH: B2 VH with L11V, V24G, T28K, T30P, P53I, N63K, A82E
VL: QIVLTQSPAIMSASPGEKVTMTCNASSSVSYMYWYQQKPISSPRLLIYDTSNLASGVPVRFSGSGSGTSYSLTIGRMEAEDAATYYCQQWSSYPLTFGAGTKVEVK
B6: CHA.7.512 (antibody, V domains shown)
VH: QIQLVQSGPELKKPRETVKISCKASGYTFTDYSMHWVKQAPGKGLKWMGWINTETGEPTYADDFKGRFAFSLEASASSAYLQINILKDEDTATYFCARSRGGYYEDYYALDYWGQGTSVTVSS
VL: DIQMTQSPASLSASVGESVTITCRASGNIHYYLAWYQQKQGKSPQLLVYNAKNLADGVPSRFSGSGSGTQFSLKINSLQPEDFGSYYCQHFWISPPTFGGGTKLEIK
B7: CHA.7.544 (antibody, V domains shown)
VH: QVQLKESGPGLVAPSQSLSITCTVSGFSLTSYAITWVRQPPGKGLEWLGVIWPGGGTNYNSALKSRLSISKDNSKSHLFLKMNSLQTDDTARYYCVRSYDGYLDWYFDVWGTGTTVTVSS
VL: NIVMTQSPKSMSMSVGERVTLSCKASENVGTYVSWYQQKPDQSPKLLIYGASNRYTGVPDRFTGSGSATDFTLIISSVQAEDLSDYHCGQSYSYPYTFGGGTKLEII

Legend:
[1] = target: T1, human PVRIG on cells; assay: FACS, human PBMC, CD56 int. NK cells, 10ug/ml
[2] = target: T1, human PVRIG on cells; assay: FACS, HEK hPVRIG over HEK parental cells, 3.3ug/ml
[3] = target: T1, human PVRIG on cells; assay: FACS, human PBMC, CD8+ T cells, 10ug/ml
[4] = target: T2, cynomolgus PVRIG on cells; assay: FACS, expi cPVRIG over expi parental cells, 3.3ug/ml
[5] = target: T1, human PVRIG on cells; assay: FACS, human PBMC, CD56 int. NK cells, 10ug/ml; remark: listed apart in the source
[6] = target: T1, human PVRIG on cells; assay: FACS, HEK hPVRIG cells (HEK OE)
[7] = target: T3, PVRIG (FACS-based competition assay of …); assay: FACS-based competition assay of PVRIG blocking; format and competitor not given
[8] = target: T1, human PVRIG on cells; assay: FACS, Jurkat cells, relative to control, 3.3ug/ml
[9] = target: T2, cynomolgus PVRIG on cells; assay: FACS, expi cPVRIG over expi parental cells, 3.3ug/ml; remark: listed apart in the source
[10] = target: T1, human PVRIG on cells; assay: FACS, human PBMC, CD8+ T cells, 10ug/ml; remark: listed apart in the source
[11] = target: T3, PVRIG (FACS-based competition assay of …); assay: FACS-based competition assay of PVRIG blocking; format and competitor not given; remark: listed apart in the source
[12] = target: T2, cynomolgus PVRIG on cells; assay: FACS, cyno PBMC, NK cells, 10ug/ml
[13] = target: T2, cynomolgus PVRIG on cells; assay: FACS, cyno PBMC, CD8+ T cells, 10ug/ml
[14] = target: T1, human PVRIG on cells; assay: FACS, human PBMC, CD56 int. NK cells, 10ug/ml; remark: listed apart in the source
[15] = target: T1, human PVRIG on cells; assay: FACS, human PBMC, CD8+ T cells, 10ug/ml; remark: listed apart in the source
[16] = target: T2, cynomolgus PVRIG on cells; assay: FACS, cyno PBMC, CD8+ T cells, 10ug/ml; remark: listed apart in the source
[17] = target: T2, cynomolgus PVRIG on cells; assay: FACS, cyno PBMC, NK cells, 10ug/ml; remark: listed apart in the source
[18] = target: T2, cynomolgus PVRIG on cells; assay: FACS, expi cPVRIG over expi parental cells, 3.3ug/ml; remark: listed apart in the source
[19] = target: T1, human PVRIG on cells; assay: FACS, HEK hPVRIG cells (HEK OE); remark: listed apart in the source
[20] = target: T1, human PVRIG on cells; assay: FACS, Jurkat cells, relative to control, 3.3ug/ml; remark: listed apart in the source
[21] = target: T1, human PVRIG on cells; assay: FACS, HEK hPVRIG over HEK parental cells, 3.3ug/ml; remark: listed apart in the source

Binder	gMFIr Human CD56 int. NK [1]	gMFIr HEK OE/par [2]	gMFIr Human CD8+ T cells [3]	gMFIr Expi cyno OE/par [4]	gMFIr Human CD56 int. NK [5]	EC50 [6] [nM]	IC50 [7] [nM]	gMFIr Jurkat [8]	gMFIr Expi cyno OE/par [9]	gMFIr Human CD8+ T cells [10]	IC50 [11] [nM]	further results
B1	4.16	49.8	5.15	65.2	4.16	5.31	38.9	7.67	65.2	5.15	38.9	–
B2	4.22	37.9	4.09	60	4.22	0.79	33.1	5.73	60	4.09	33.1	gMFIr Cyno NK cells [12]: 1.76; gMFIr Cyno CD8+ T cells [13]: 2.09
B3	3.13	16.3	2.73	38.2	3.13	92.8	55	4.19	38.2	2.73	55	–
B4	2.06	10.1	1.9	27.2	2.06	91.4	50.5	2.99	27.2	1.9	50.5	–
B5	5.5	48.3	–	–	–	0.46	30.2	7.87	66.3	6.12	30.2	gMFIr Human CD56 int. NK [14]: 5.5; gMFIr Cyno NK cells [12]: 1.78; gMFIr Human CD8+ T cells [15]: 6.12; gMFIr Cyno CD8+ T cells [13]: 2.02; gMFIr Cyno CD8+ T cells [16]: 2.02; gMFIr Cyno NK cells [17]: 1.78; gMFIr Expi cyno OE/par [18]: 66.3
B6	1.3	5.12	1.15	8.96	1.3	53	840	1.47	8.96	1.15	840	–
B7	2.36	–	–	–	–	–	–	–	61.1	2.54	–	gMFIr Human CD56 int. NK [14]: 2.36; EC50 [19]: 0.76 nM; gMFIr Human CD8+ T cells [15]: 2.54; gMFIr Jurkat [20]: 5.68; gMFIr Expi cyno OE/par [18]: 61.1; gMFIr HEK OE/par [21]: 42.6
